Experimental data taken from a protein production outcome set (Wang et al. 2014).

Assay: label from the status in PepcDB records

Sequence	protein production
MKVDDTEEASQKPEDILAQGKDEARLSLEERRKLFQSKGLSAEESLVSVSTEDTLFQKEEDSKVYPLSMTWSFGWNSSLPVYYMREDRRVILYTCAHTAIMYDVVRNTQYHLQGHPNIISCLCVSEDRRWIATADEGPDCLIIIWDSFTGIPVHTIFDSCPEGNGMRSIAITRDSKFLATISDSATQKVCIWKWTLAVETPACTLELPKEYGFQDNLVFNPANNKELVSNSKTQAIYYCWFEDKGILAHSAPVLTEKTFNKLVGKFSQSVFHLKLPQVLSATKEGKLVVWDIHYPSSTSSSAISAFPFIKPRKLVHLQKEAITVLMTIDSYIVTGDIKGNIKFYDHTLSVVNWYSNFKLGAIRTLSFSKTIPSLPTEKSNLPTDCTLRGDLFVVRNFIIGTFDATVYHMTVDGTKLEKLFVEPRDAVYAVSCHPYQPLIAVGSVCGMIKVWDFEKKVYLFSRTFEKGLGVQCLTYNPEGALLGAGFTEGTVYILDAMSLENESPEPFKYSKSSVSHCCFSHDSNYMATADVNFTVAVYMVVVKNGQRVWEYLARLRSHQNSIQSLLFGVHLDSNEPRLLSLGKDRFLIEYNLVKSCKDHLDVLDVHRTDQGNYPTCMIWYPPLTKELFLLICNSGYKVKLFNATTKMCRKTLLGPAYGSPIEHAQVLPVKSTLELQKRYLVFINKDKVGLQILPVDGNPHKTCAIVCHPNGVAGMALSYDGRFAFTAGGQDRSVVQWKINLGALEAAVSLGGEDLTPFYGLVSGGREGKFYRELEDYFYYSQIRSQGIDTMETRQVSEHICLSELPFVMRAIGFYPSEEKIEDMFNEIKFSEYVETGKLIDKINLPDFLKVYLNHRPPFGNTMDGIQNSFNVLGYTNSEGKKAIRREDFLNLLLTKGEHMTEEEMIDCFSTLFGLTPEGWKSEPAATCINGPEICLQKELPEEITAEIFTTEILGLTLSDSSEQLIQ	failed
MWIGSVFMRKSFVISLLSAGILLAGCQAVNTTSGGAVGVERQQYMFSMLSTDEVNQMYAQSYQQTLGEASSKGVLDKSSADAKRVQAIANRLIAQAPKFRPDAAQWDWQVNVIKSDELNANCGPGGKIIVYTGLIDQLKLTDAEIAAVVGHEIAHALREHSREAMSKAYGVEMARQGAGAIFGLGQSSMAMADTVVNYAMTLPNSRANENEADLIGLELSARAGYDPNAAITLWNKMSKASEGAPPEFMSTHPASASRIASLQAAIPKVMPLYQAAAKP	failed
MNKSSATIMAAALMLASSCTEVKQEGQGYEPIIGKQEITIKDGRLTPEALWAMGRIGSLSISPDGKQIAYTVAYYSVPENKSHHVIYVMDADGKNNTLLTQTAWNESEPQWIKGGTKIAFLCNESGGSQIWEMNPDGTERRIISDFKGNIEGFSFSPDGKKILFISQIKYGQRTVDLYPDLPKASGIIVNDLMYKHWDEWVESIPHPFIADFDGNMMGAATDIMEGEPFEAPMKPFGGIEQLAWSNDSKQIAYTSRKKQGLAYAVSTDSDIYLYNIEKGTTLNLCKPNGKDSNGTDEMKGYDTNPKFSPNGKYIAWQSMERDGYESDRNRLCIYNLDDGQKTFVTESFESGVDDYCWNNDSQSLYFVGVWHGTSMVYSANLNGDIKKLTDGMYDYGSVAMAGDKIITKRHSISAADEIYTLTPADGQVAQLSHENDHIFKQLNLGKVEERWTKTTDGKQMLSWVIYPVNFDANKKYPTLLFCEGGPQSPVSQFWSYRWNFQIMAANDYIIIAPNRRGLPGFGMEWLEQISGDYGGQCMKDYLSAIDDISKEPYVDTNRLGCVGASFGGFSVYWLAGHHDKRFKAFIAHDGIFNMEQQYLETEEMWFANWDMGGAYWDKNNATAQRTFANSPHRFVDKWDTPILCIHGEKDYRILASQGMSAFNAAVLRGVPAELLLYPDENHWVLKPQNGVLWQRTFFSWLDKWLK	failed
KEETEIIEGEVVEIQIDRPATGTGSKVGKLTLKTTEMETIYDLGTKMIESLTKDKVQAGDVITIDKATGKISKLGRSFTRAR	not failed
MTTILTVFTHAGGAGKTSIAGNIAHEFAQRGQHVLLIDGDPQSNLTTNMGVQDAELHETLFDVLSGDAPLPAPRHVHGFDLIPAVIDLAEVEPSIPGRVGGILALRDALQKESGRWDTVIIDSPPSLGQLAAACALAADALVVPIMTRSKGLNALRGLNRVMPQYHRLRPDLHVAAYVPTMCKSNRKEDSELLGIVREDLPHVTSPIVERGAVWNGAAEKGLPVTVFAPRSKEAEEIRKITSDLVEFLQRNAPERGER	failed
MYNRPNWQRRRRSLLVLVLGLLFLGFLIQPSYQWTKTNVAAMAGRHDSQMSPIIMIPGSSATQNRFDTLVKQLNKADHRRHSLIKLTVMTDDTIKMTGSLRARDNEPIIVVGFQNNRDGYDNIKHQARWFSLAFKKLAAKYQFNNFKAIGHSNGGLIYTYYFEHYFNRDDIKVKRIMTIGSPYNFSEANLNHKTQMLADFIKYRDRLPKSATMYSVAGTENYDSDGLVPARSVEAGKYIYQGQVKHFTEITVTGTNAQHSDLPQNAQIVTLIRTYMLDKPKQTRKGLVSTGTVE	failed
MAEHIITLVLSGERLDVTTSTPFVVALRDLLYEGDWELLKEDMKKKENIMKEVQTCEKLEKVVHLDETVYEPLIFPEFQEWLREENITPKDFKNVSLKGLYDLALEYADRNLYDIAHDIIKFMLDIDENYAPAYELKGSLLVEQGKIEEGIKFLDKAVEIDPWLVQAYASLGEAYYNLGDYEKAIHYWERELEYNPNDKITYFMITEAYYEMNRKDLAVKTLERLLEIDPDNIPALYQLSQLYRELGNEEKAREMEEKIMNCKPKYPTELEPWARVMLKHGRYKEVAEELEKIVESSPLNTLARLLLVVPYVKLGQIDKAREILDDIGQSNFWYYYGKKEILDELLTEEEKRACGIS	failed
MEVMRGVRVIEGMNGGRFPYCNVVVVGDVVIDAGAGLEVMRKVNASLLVLSHLHPDHSSGAWLFKDVLAPAEGRITLDTLARRFVAPDLVESWKRFISAATGLREFECERYEEGVVVKEPEIVAVPVKGHTMDHHVFLIEQKVLFGADVDLTSFGPFYGNPEADPYLFEREMDKLLDIDFEIFVSAHSKPVFGKEEAEGRILEFKRKIKEREEIILSLLEEPKSLDELVELSPIYGRKPYAKEILDFFERVMIEKHIEKLEMEGRVRKEDGKYVRV	failed
MKKKLGLLAMVVALMAIATGCSETGQPITSKSTGIWNEYFVYPLSQLITYFADLFNSNYGLAIVITTLIIRFALLPLMIKQTKSTKAMQALQPEMVKLKEKYSSKDQATQQKLQQEMMQLYQKNGVNPLAGCLPIFVQMPILFAFYHAIMRTAEIKQHSFLWFDLGHADPFYILPVVAAITTFIQQKLAMAGTAGQNPQMAMMLWLMPIMILIFAINFPAALSLYWVVGNIFGIAQMYFIKGPEIKASKAGKAGGSSK	failed
MDKESVDTLFGMGLTAYQAKDYTKAIHALEHLREHDPSYTTLYSYLAKSYEENGEPEKAIAVLRDGLTQDEFNKEMFLEAGKLAVTLRLPEEAEEFYRQAIVLDEEFSEAIMQLNKLLLAKENYEGVIELVEGLGEEVISEPQIFWDVSVAYQETEQYNKAKANYELAYPHFTNNPTFLKEYGLFLREEGEHAKSQEVLRSYLELEPLEHHHHHH	not failed
MVRCVRLVEAGSVVRYLSTSICRPVVDAGSRALCLQEWADSQQVKEKQYSRDVQRAAALNIYRIPPSSRKPALCPTPRDRLEYDEDRLEHIAYVRARELHTLEVTGLETVAQSKAHVASLEGLIPEDKVVLLAGSPLQNEATLGQCGVEALTTLEVVGRRLGGNNCLSLQVNPVQPARYLWTTLHSSKQGEPNSSANHRCS	failed
MADTSPSACLVFQGSGFYAKLSDFRACLTGFMLPLSPSLLPTLAAAVLYAAATFYQGSRLATGAKANKRLLVTLGILALLAHAASLLTHLLTPVGLGLDFFSAASLIAAAVIALTLLACWRIPVENLLVLLFPLGALTALLAQFVPTGTVPVIDEEPGILAHILLSILAYGMFTIAVFQALLLLVQDHQLKNKHPSGLIRNFPPLQTMESLLFGFLWAGWTLLSLSLISGWLFVENLFAQHLVHKTLLACLAWVVFSVLLWGRNRLGWRGHKAIRWTLAGFCLLMLAYFGSKLVREYILHI	failed
MSLSAKSSLKEVAELAGVGYATASRALSGKGYVSPQTREKVQAAAKELNYVPNQLAKALREHRSALVGVIVPDLSNEYYSESLQTIQQDLKAAGYQMLVAEANSVQAQDVVMESLISIQAAGIIHVPVVGSIAPEGIPMVQLTRGELGPGFPRVLCDDEAGFFQLTESVLGGSGMNIAALVGEESLSTTQERMRGISHAASIYGAEVTFHFGHYSVESGEEMAQVVFNNGLPDALIVASPRLMAGVMRAFTRLNVRVPHDVVIGGYDDPEWYSFVGAGITTFVPPHEEMGKEAVRLLVDLIENPELPTGDVVLQGQVILRGSSTHEGHHHHHH	not failed
MATAAASVVSSETGDLRAYMAANPAAVIEEVAKQWNVSPHAVIAALPDGMARLGPGDGFVAAMNDIATWGEVTLIVHTEDAIFEFTGEVPRGEISRGYFNLMQPKGLHGHLRHDRCGALAFVERPFMGKASAFVAFLNRDGGIMFKVFVGRDANRELRADQLARFHALAKQFSEEHSALEHHHHHH	failed
MFMYTEFRSQLLAGAGTSAAGQSARMAVLAGDGATGVQVSCVVPGLNEAANLRVLVPALRACLEQWCASWEIIVVDDGSTDDTAELMAQWSAVEGIRYVQLSRNFGKEAALTAGLEAADGDAVICLDADMQHPPELIGDMLAAWRNGADMVYAVRRQRDDEPWFKRVGARAFYRLLSTARGVEVPPHAGDFRLMDRRVVEALVALPERTRFMKGLYAWVGFKSQAVPYTPQARRHGASHFSAWKLFRLACDGLTAFTTWPLRLVSLIGVLFALLSLSYGGYLVADYLISGNAVSGWTTIVTALLFFAGINLISLGVVGEYVARIFDEVKGRPLFIARQRRGRAKRAAKARSQ	failed
MIEFVYPHTQLVAGVDEVGRGPLVGAVVTAAVILDPARPIAGLNDSKKLSEKRRLALYEEIKEKALSWSLGRAEPHEIDELNILHATMLAMQRAVAGLHIAPEYVLIDGNRCPKLPMPAMAVVKGDSRVPEISAASILAKVTRDAEMAALDIVFPQYGFAQHKGYPTAFHLEKLAEHGATEHHRRSFGPVKRALGLAS	not failed
MSRAGRIAAETRAAWYAFVRRRTAVFFTFFFPVILILIFGALVGTDPTGGGLFAEPAGYYVAGYLAVVVLFTPLSRVGSEVARHRSGNRFEKLATTPLSRAEWLFAQTLVNVVVIGLASLLILGLVLLVTDAAFTFSLLVVPYVALGVALFCGLGAILGRIADSQDGAIAASNGIAIPLLFLSETFVPPALLPEWFVPLLDLSPLTYFARGLRAATYEPVANTGGTGLVGSDPYLNLVVLAAGAVVFFAAGAYALPRTD	failed
KISNIFEDVEFCVMSGTDSQPKPDLENRIAEFGGYIVQNPGPDTYCVIAGSENIRVKNIILSNKHDVVKPAWLLECFKTKSFVPWQPRFMIHMCPSTKEHFAREYD	not failed
MPNILYKIDNQYPYFTKNEKKIAQFILNYPHKVVNMTSQEIANQLETSSTSIIRLSKKVTPGGFNELKTRLSKFLPKEVTQYNVELVDNESTISLKNKLHSRSKAALSNANETINVAIIDEICDLIKNSETIFIYGYGASFVVATDLYQKLSRIGLNIQLVHETHIFTTMLATRNSNDCVIFISNNGTQSEMQSIAKVIADYHIPIATISSTSDNPVAKQSNIVLTYGQTDENEMRMGATTSLFAQMFTIDILYYRYIALNYQSSLDFITQSKIALDNYRKHLSNIDFKH	failed
MSLIPKFREFDRERHRTDYQKGMSYAEQQDFDMGFTIWFDHIEDLDLIEKDGTINRIVMMSTGLKDKNVKEIYESDIVRNLYGELYVVEWLDGSFVLTEFYNGGYDHYIIDSSTEYEVLGNIYENPELLEDDNHASNEGHHHHHH	not failed
